From US20250282871A1, “PHARMACEUTICAL COMBINATION AND USE THEREOF” (TIANJIN LIPOGEN TECHNOLOGY CO., LTD, priority 2021, published 2025)

Test system: colorectal carcinoma MC38
Test: Example 7.2.1: MC38 subcutaneous xenograft, marketed PD-1 inhibitors and 2′,3′-cGAMP
Type: in vivo, mouse
Conditions: intratumor injection; PD-1 antibody 10 mg/kg, 2′,3′-cGAMP 1 mg/kg; every other day, 3 times
Description: Tumor cells were cultured and passaged, cells were collected at the logarithmic phase, and formulated into a concentration of (1.0×10^7) per milliliter of cell suspension with 0.1 ml (with a cell number of 1.0×10^6) being injected into the right flank of the mice, the tumor grew to a diameter of about 5 mm within about 10 days, and the model was successfully established, they were randomly divided into 8 groups with 8 mice per group.
Trend of changes in body weight and tumor volume of mice, survival rate of mice, and inhibitory rate of anatomical tumor weight.
Drug interaction coefficient: CDI(CI)=AB/A*B. AB is the ratio of the combination group of two drugs to the control group, as calculated based on the anatomical tumor weight. A or B is the ratio of single drug group to control group.
After successfully establishing a subcutaneous xenograft tumor model of colorectal carcinoma MC38 in mice, they were randomly grouped with 6-8 mice per group and administered once every two days, a total of 3 times.

B1: Tislelizumab: marketed PD-1 monoclonal antibody (antibody, chains of the INN, looked up)
heavy: QVQLQESGPGLVKPSETLSLTCTVSGFSLTSYGVHWIRQPPGKGLEWIGVIYADGSTNYNPSLKSRVTISKDTSKNQVSLKLSSVTAADTAVYYCARAYGNYWYIDVWGQGTTVTVSSASTKGPSVFPLAPCSRSTSESTAALGCLVKDYFPEPVTVSWNSGALTSGVHTFPAVLQSSGLYSLSSVVTVPSSSLGTKTYTCNVDHKPSNTKVDKRVESKYGPPCPPCPAPPVAGGPSVFLFPPKPKDTLMISRTPEVTCVVVAVSQEDPEVQFNWYVDGVEVHNAKTKPREEQFNSTYRVVSVLTVVHQDWLNGKEYKCKVSNKGLPSSIEKTISKAKGQPREPQVYTLPPSQEEMTKNQVSLTCLVKGFYPSDIAVEWESNGQPENNYKTTPPVLDSDGSFFLYSKLTVDKSRWQEGNVFSCSVMHEALHNHYTQKSLSLSLG
light: DIVMTQSPDSLAVSLGERATINCKSSESVSNDVAWYQQKPGQPPKLLINYAFHRFTGVPDRFSGSGYGTDFTLTISSLQAEDVAVYYCHQAYSSPYTFGQGTKLEIKRTVAAPSVFIFPPSDEQLKSGTASVVCLLNNFYPREAKVQWKVDNALQSGNSQESVTEQDSKDSTYSLSSTLTLSKADYEKHKVYACEVTHQGLSSPVTKSFNRGEC
IRTW % (tumor weight inhibitory rate): 61.4%
Tumor Weight: 0.59 g

B2: Camrelizumab: marketed PD-1 monoclonal antibody (antibody, chains of the INN, looked up, V domains shown)
VH: EVQLVESGGGLVQPGGSLRLSCAASGFTFSSYMMSWVRQAPGKGLEWVATISGGGANTYYPDSVKGRFTISRDNAKNSLYLQMNSLRAEDTAVYYCARQLYYFDYWGQGTTVTVSS
VL: DIQMTQSPSSLSASVGDRVTITCLASQTIGTWLTWYQQKPGKAPKLLIYTATSLADGVPSRFSGSGSGTDFTLTISSLQPEDFATYYCQQVYSIPWTFGGGTKVEIK
IRTW % (tumor weight inhibitory rate): 19.6%
Tumor Weight: 1.23 g
